Reference: publication PMC7919418 (Genes & Development, 2021)

Assay: SEC-MALS molecular weight / oligomeric state
Assay type: physicochemical

## dual-TQT/V Panx peptides: Panx peptide residues 455–480 with both Ctp binding sites (TLYKNAATQTERRTATRDAGTQVRLE)
  oligomeric state / stoichiometry: two Ctp homodimers with two dual-TQT/V Panx peptides
